The text below walks through data of patent US20230406951A1 (Pfizer, published 2023).

The target in the assay is T1, human TNFR2 (human, UniProt P20333 23-461).
T1 construct: expressed on the surface of CHO cells; also called HuTNFR2; TNFRSF1B
T1 sequence: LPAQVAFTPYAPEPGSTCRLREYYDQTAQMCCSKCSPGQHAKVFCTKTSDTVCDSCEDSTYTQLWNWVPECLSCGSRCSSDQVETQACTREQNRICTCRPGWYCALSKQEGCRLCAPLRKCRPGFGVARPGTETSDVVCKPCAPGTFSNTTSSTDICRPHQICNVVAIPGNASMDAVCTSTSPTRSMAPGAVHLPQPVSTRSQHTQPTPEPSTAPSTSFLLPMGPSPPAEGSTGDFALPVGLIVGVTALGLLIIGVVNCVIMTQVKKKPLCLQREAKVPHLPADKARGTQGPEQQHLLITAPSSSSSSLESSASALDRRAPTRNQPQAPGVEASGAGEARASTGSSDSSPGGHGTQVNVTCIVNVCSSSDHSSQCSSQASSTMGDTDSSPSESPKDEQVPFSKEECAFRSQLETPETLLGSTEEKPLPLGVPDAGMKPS
Kind of assay: binding to human TNFR2 CHO cells.

B1: IgG 2038 (antibody, name in Kabat numbering, V domains shown)
VH: QVQLVQSGAEVKKPGASVKVSCKVSGFSFPSSGVDWVRQAPGQGLEWLGVTRGEGSTHYNQKFQGRVTITKDTSKSTVYMELSSLRSEDTAVYYCASGEHDEGFVYWGQGTLVTVSS
VL: DIQLTQSPSFLSASVGDRVTITCKASQNVGTAVAWYQQKPGKAPKLLIYAASTLQSGVPSRFSGSGSGTEFTLTISSLQPEDFATYYCLQYSSYPLTFGGGTKVEIKR
notes: IgG
Take B1: the binding result is given as “no binding”.

B2: IgG 2045 (antibody, name in Kabat numbering, V domains shown)
VH: QVQLVQSGAEVKKPGASVKVSCKVSGFSFPSSGVDWVRQAPGQGLEWLGVTLGHGSTHYNQKFQGRVTITKDTSKSTVYMELSSLRSEDTAVYYCASGESTEGFVYWGQGTLVTVSS
VL: DIQLTQSPSFLSASVGDRVTITCKASQNVGTAVAWYQQKPGKAPKLLIYAASTLQSGVPSRFSGSGSGTEFTLTISSLQPEDFATYYCLQYSSYPLTFGGGTKVEIKR
notes: IgG
On to B2, for which the binding result is reported as “no binding”.

B3: IgG 2052 (antibody, name in Kabat numbering, V domains shown)
VH: QVQLVQSGAEVKKPGASVKVSCKVSGFSFPSSGVDWVRQAPGQGLEWLGVTHGSGSTHYNQKFQGRVTITKDTSKSTVYMELSSLRSEDTAVYYCASGEQDEGFVYWGQGTLVTVSS
VL: DIQLTQSPSFLSASVGDRVTITCKASQNVGTAVAWYQQKPGKAPKLLIYAASTLQSGVPSRFSGSGSGTEFTLTISSLQPEDFATYYCLQYSSYPLTFGGGTKVEIKR
notes: IgG
Regarding B3, the binding result is given as “no binding”.

B4: IgG 2043 (antibody, name in Kabat numbering, V domains shown)
VH: QVQLVQSGAEVKKPGASVKVSCKVSGFSFPSSGVDWVRQAPGQGLEWLGVTFQEGSTHYNQKFQGRVTITKDTSKSTVYMELSSLRSEDTAVYYCASGERDEGFVYWGQGTLVTVSS
VL: DIQLTQSPSFLSASVGDRVTITCKASQNVGTAVAWYQQKPGKAPKLLIYAASTLQSGVPSRFSGSGSGTEFTLTISSLQPEDFATYYCLQYSSYPLTFGGGTKVEIKR
notes: IgG
B4: the binding result is listed as “no binding”.

B5: IgG 2041 (antibody, name in Kabat numbering, V domains shown)
VH: QVQLVQSGAEVKKPGASVKVSCKVSGFSFPSSGVDWVRQAPGQGLEWLGVTFQEGSTHYNQKFQGRVTITKDTSKSTVYMELSSLRSEDTAVYYCASGESTEGFVYWGQGTLVTVSS
VL: DIQLTQSPSFLSASVGDRVTITCKASQNVGTAVAWYQQKPGKAPKLLIYAASTLQSGVPSRFSGSGSGTEFTLTISSLQPEDFATYYCLQYSSYPLTFGGGTKVEIKR
notes: IgG
B5: the binding result is reported as “no binding”.

B6: IgG 2047 (antibody, name in Kabat numbering, V domains shown)
VH: QVQLVQSGAEVKKPGASVKVSCKVSGFSFPSSGVDWVRQAPGQGLEWLGVTLGHGSTHYNQKFQGRVTITKDTSKSTVYMELSSLRSEDTAVYYCASGERDEGFVYWGQGTLVTVSS
VL: DIQLTQSPSFLSASVGDRVTITCKASQNVGTAVAWYQQKPGKAPKLLIYAASTLQSGVPSRFSGSGSGTEFTLTISSLQPEDFATYYCLQYSSYPLTFGGGTKVEIKR
notes: IgG
Regarding B6, the binding result was “no binding”.

B7: IgG 2046 (antibody, name in Kabat numbering, V domains shown)
VH: QVQLVQSGAEVKKPGASVKVSCKVSGFSFPSSGVDWVRQAPGQGLEWLGVTLGHGSTHYNQKFQGRVTITKDTSKSTVYMELSSLRSEDTAVYYCASGEHDEGFVYWGQGTLVTVSS
VL: DIQLTQSPSFLSASVGDRVTITCKASQNVGTAVAWYQQKPGKAPKLLIYAASTLQSGVPSRFSGSGSGTEFTLTISSLQPEDFATYYCLQYSSYPLTFGGGTKVEIKR
notes: IgG
On to B7, for which the binding result is “no binding”.

B8: IgG 2042 (antibody, name in Kabat numbering, V domains shown)
VH: QVQLVQSGAEVKKPGASVKVSCKVSGFSFPSSGVDWVRQAPGQGLEWLGVTFQEGSTHYNQKFQGRVTITKDTSKSTVYMELSSLRSEDTAVYYCASGEHDEGFVYWGQGTLVTVSS
VL: DIQLTQSPSFLSASVGDRVTITCKASQNVGTAVAWYQQKPGKAPKLLIYAASTLQSGVPSRFSGSGSGTEFTLTISSLQPEDFATYYCLQYSSYPLTFGGGTKVEIKR
notes: IgG
Take B8: the binding result was “no binding”.

B9: IgG 2051 (antibody, name in Kabat numbering, V domains shown)
VH: QVQLVQSGAEVKKPGASVKVSCKVSGFSFPSSGVDWVRQAPGQGLEWLGVTHGSGSTHYNQKFQGRVTITKDTSKSTVYMELSSLRSEDTAVYYCASGERDEGFVYWGQGTLVTVSS
VL: DIQLTQSPSFLSASVGDRVTITCKASQNVGTAVAWYQQKPGKAPKLLIYAASTLQSGVPSRFSGSGSGTEFTLTISSLQPEDFATYYCLQYSSYPLTFGGGTKVEIKR
notes: IgG
B9: the binding result is “no binding”.

B10: IgG 2044 (antibody, name in Kabat numbering, V domains shown)
VH: QVQLVQSGAEVKKPGASVKVSCKVSGFSFPSSGVDWVRQAPGQGLEWLGVTFQEGSTHYNQKFQGRVTITKDTSKSTVYMELSSLRSEDTAVYYCASGEQDEGFVYWGQGTLVTVSS
VL: DIQLTQSPSFLSASVGDRVTITCKASQNVGTAVAWYQQKPGKAPKLLIYAASTLQSGVPSRFSGSGSGTEFTLTISSLQPEDFATYYCLQYSSYPLTFGGGTKVEIKR
notes: IgG
On to B10, for which the binding result is “no binding”.

B11: IgG 2048 (antibody, name in Kabat numbering, V domains shown)
VH: QVQLVQSGAEVKKPGASVKVSCKVSGFSFPSSGVDWVRQAPGQGLEWLGVTLGHGSTHYNQKFQGRVTITKDTSKSTVYMELSSLRSEDTAVYYCASGEQDEGFVYWGQGTLVTVSS
VL: DIQLTQSPSFLSASVGDRVTITCKASQNVGTAVAWYQQKPGKAPKLLIYAASTLQSGVPSRFSGSGSGTEFTLTISSLQPEDFATYYCLQYSSYPLTFGGGTKVEIKR
notes: IgG
With B11, the binding result is on record as “no binding”.

B12: IgG 2039 (antibody, name in Kabat numbering, V domains shown)
VH: QVQLVQSGAEVKKPGASVKVSCKVSGFSFPSSGVDWVRQAPGQGLEWLGVTRGEGSTHYNQKFQGRVTITKDTSKSTVYMELSSLRSEDTAVYYCASGERDEGFVYWGQGTLVTVSS
VL: DIQLTQSPSFLSASVGDRVTITCKASQNVGTAVAWYQQKPGKAPKLLIYAASTLQSGVPSRFSGSGSGTEFTLTISSLQPEDFATYYCLQYSSYPLTFGGGTKVEIKR
notes: IgG
Turning to B12, the binding result was “no binding”.

B13: IgG 2050 (antibody, name in Kabat numbering, V domains shown)
VH: QVQLVQSGAEVKKPGASVKVSCKVSGFSFPSSGVDWVRQAPGQGLEWLGVTHGSGSTHYNQKFQGRVTITKDTSKSTVYMELSSLRSEDTAVYYCASGEHDEGFVYWGQGTLVTVSS
VL: DIQLTQSPSFLSASVGDRVTITCKASQNVGTAVAWYQQKPGKAPKLLIYAASTLQSGVPSRFSGSGSGTEFTLTISSLQPEDFATYYCLQYSSYPLTFGGGTKVEIKR
notes: IgG
On to B13, for which the binding result is reported as “no binding”.
